Laboratory results as given in patent US20170313754A1 (PROTAGONIST THERAPEUTICS, published 2017).
Bridge positions count the residues as written; N and C are the ends. Square brackets hold non-standard residues; d marks the D form. * marks the point of attachment. Palmitoyl = CCCCCCCCCCCCCCCC(=O)*; pGlu = O=C1CC[C@@H](C(=O)O)N1; Isovaleryl = CC(C)CC(=O)*; Isobutyryl = CC(C)C(=O)*; βAla = NCCC(=O)O; Sar = CNCC(=O)O

B1: Isobutyric acid-DTHFPIC1IFVC2HRSKGC2YRRC1R-NH2 (peptide)
peptide: Isobutyryl-DTHFPICIFVCHRSKGCYRRCR-NH2
modifications: disulfide 11-17, 7-21
SMILES: CC[C@H](C)[C@@H]1NC(=O)[C@@H](NC(=O)[C@@H](NC(=O)[C@@H]2CCCN2C(=O)[C@H](Cc2ccccc2)NC(=O)[C@H](Cc2c[nH]cn2)NC(=O)[C@@H](NC(=O)[C@H](CC(=O)O)NC(=O)C(C)C)[C@@H](C)O)[C@@H](C)CC)CSSC[C@@H](C(=O)N[C@@H](CCCNC(=N)N)C(N)=O)NC(=O)[C@H](CCCNC(=N)N)NC(=O)[C@H](CCCNC(=N)N)NC(=O)[C@H](Cc2ccc(O)cc2)NC(=O)[C@@H]2CSSC[C@H](NC(=O)[C@H](C(C)C)NC(=O)[C@H](Cc3ccccc3)NC1=O)C(=O)N[C@@H](Cc1c[nH]cn1)C(=O)N[C@@H](CCCNC(=N)N)C(=O)N[C@@H](CO)C(=O)N[C@@H](CCCCN)C(=O)NCC(=O)N2
B2: pGlu-THFPIC1IFVC2HRSKGC2YRRC1R-NH2 (peptide)
peptide: [pGlu]THFPICIFVCHRSKGCYRRCR-NH2
modifications: disulfide 11-17, 7-21
SMILES: CC[C@H](C)[C@@H]1NC(=O)[C@@H](NC(=O)[C@@H](NC(=O)[C@@H]2CCCN2C(=O)[C@H](Cc2ccccc2)NC(=O)[C@H](Cc2c[nH]cn2)NC(=O)[C@@H](NC(=O)[C@@H]2CCC(=O)N2)[C@@H](C)O)[C@@H](C)CC)CSSC[C@@H](C(=O)N[C@@H](CCCNC(=N)N)C(N)=O)NC(=O)[C@H](CCCNC(=N)N)NC(=O)[C@H](CCCNC(=N)N)NC(=O)[C@H](Cc2ccc(O)cc2)NC(=O)[C@@H]2CSSC[C@H](NC(=O)[C@H](C(C)C)NC(=O)[C@H](Cc3ccccc3)NC1=O)C(=O)N[C@@H](Cc1c[nH]cn1)C(=O)N[C@@H](CCCNC(=N)N)C(=O)N[C@@H](CO)C(=O)N[C@@H](CCCCN)C(=O)NCC(=O)N2
B3: Hy-DTHFPIAIFGPRSKGWVAM-NH2 (peptide)
peptide: H-DTHFPIAIFGPRSKGWVAM-NH2
B4: Hy-DTHFPCRRFGPRSKGWVC-NH2 (peptide)
peptide: H-DTHFPCRRFGPRSKGWVC-NH2
modifications: disulfide 6-18 (inferred)
B5: Hy-DTHFPC1IIFVC2HRSKGC2YWAVC1FW-NH2 (peptide)
peptide: H-DTHFPCIIFVCHRSKGCYWAVCFW-NH2
modifications: disulfide 11-17, 6-22
SMILES: CC[C@H](C)[C@@H]1NC(=O)[C@@H](NC(=O)[C@@H]2CCCN2C(=O)[C@H](Cc2ccccc2)NC(=O)[C@H](Cc2c[nH]cn2)NC(=O)[C@@H](NC(=O)[C@@H](N)CC(=O)O)[C@@H](C)O)CSSC[C@@H](C(=O)N[C@@H](Cc2ccccc2)C(=O)N[C@@H](Cc2c[nH]c3ccccc23)C(N)=O)NC(=O)[C@H](C(C)C)NC(=O)[C@H](C)NC(=O)[C@H](Cc2c[nH]c3ccccc23)NC(=O)[C@H](Cc2ccc(O)cc2)NC(=O)[C@@H]2CSSC[C@H](NC(=O)[C@H](C(C)C)NC(=O)[C@H](Cc3ccccc3)NC(=O)[C@H]([C@@H](C)CC)NC1=O)C(=O)N[C@@H](Cc1c[nH]cn1)C(=O)N[C@@H](CCCNC(=N)N)C(=O)N[C@@H](CO)C(=O)N[C@@H](CCCCN)C(=O)NCC(=O)N2
B6: Hy-THFPCIIFGPRSKGWVCK-NH2 (peptide)
peptide: H-THFPCIIFGPRSKGWVCK-NH2
modifications: disulfide 5-17 (inferred)
B7: Isovaleric acid-THFPCIIFGPRSKGWVCK-NH2 (peptide)
peptide: Isovaleryl-THFPCIIFGPRSKGWVCK-NH2
modifications: disulfide 5-17 (inferred)
B8: Hy-HFPCIIFGPRSKGWVCK-NH2 (peptide)
peptide: H-HFPCIIFGPRSKGWVCK-NH2
modifications: disulfide 4-16 (inferred)
B9: Isovaleric acid-HFPCIIFGPRSKGWVCK-NH2 (peptide)
peptide: Isovaleryl-HFPCIIFGPRSKGWVCK-NH2
modifications: disulfide 4-16 (inferred)
B10: Hy-DTHFGCIIFGPRSKGWVCK-NH2 (peptide)
peptide: H-DTHFGCIIFGPRSKGWVCK-NH2
modifications: disulfide 6-18 (inferred)
B11: Hy-DTHFRCIIFGPRSKGWVCK-NH2 (peptide)
peptide: H-DTHFRCIIFGPRSKGWVCK-NH2
modifications: disulfide 6-18 (inferred)
B12: Hy-DTHF-[Sarc]-CIIFGPRSKGWVCK-NH2 (peptide)
peptide: H-DTHF[Sar]CIIFGPRSKGWVCK-NH2
modifications: disulfide 6-18 (inferred)
B13: Isovaleric acid-DTHF-[β-Ala]-CIIFGPRSKGWVCK-NH2 (peptide)
peptide: Isovaleryl-DTHF[βAla]CIIFGPRSKGWVCK-NH2
modifications: not fully specified (bridges); cysteine pairing not given here
B14: Hy-DTHF-[β-Ala]-CIIFGPRSKGWVCK-NH2 (peptide)
peptide: H-DTHF[βAla]CIIFGPRSKGWVCK-NH2
modifications: disulfide 6-18 (inferred)
B15: Hy-DTHFKCIIFGPRSKGWVCK-NH2 (peptide)
peptide: H-DTHFKCIIFGPRSKGWVCK-NH2
modifications: disulfide 6-18 (inferred)
B16: Isovaleric acid-DTHFPCIKF-K(Palm)-PRSKGWVCK-NH2 (peptide)
peptide: DTHFPCIKFKPRSKGWVCK
modifications: N-terminal isovaleric acid; Palm on the side chain of Lys 10; C-terminal amide
B17: Isovaleric acid-DTHFPCIKFGP-K(Palm)-SKGWVCK-NH2 (peptide)
peptide: Isovaleryl-DTHFPCIKFGPK(Palmitoyl)SKGWVCK-NH2
modifications: not fully specified (bridges); cysteine pairing not given here
B18: Isovaleric acid-DTHFPCIKFGPRS-K(Palm)-GWVCK-NH2 (peptide)
peptide: Isovaleryl-DTHFPCIKFGPRSK(Palmitoyl)GWVCK-NH2
modifications: disulfide 6-18 (inferred)
B19: Hy-DTHFPCI-K(IVA)-FGPRSKGWVCK-NH2 (peptide)
peptide: H-DTHFPCIK(Isovaleryl)FGPRSKGWVCK-NH2
modifications: disulfide 6-18 (inferred)
B20: Hy-DTHFPCIKF-K(IVA)-PRSKGWVCK-NH2 (peptide)
peptide: DTHFPCIKFKPRSKGWVCK
modifications: IVA (isovaleric acid) on the side chain of Lys 10; C-terminal amide
B21: Hy-ATHFPCIIF-NH2 (peptide)
peptide: H-ATHFPCIIF-NH2
B22: Hy-ADHFPCIIF-NH2 (peptide)
peptide: H-ADHFPCIIF-NH2
B23: Hy-DTHFPCIIFAC-NH2 (peptide)
peptide: H-DTHFPCIIFAC-NH2
modifications: disulfide 6-11 (inferred)
B24: Hy-DTHFPCIIFAA-NH2 (peptide)
peptide: H-DTHFPCIIFAA-NH2
B25: Hy-DPHFPCIIF-NH2 (peptide)
peptide: H-DPHFPCIIF-NH2
B26: Hy-DTHKPCIIF-NH2 (peptide)
peptide: H-DTHKPCIIF-NH2
B27: Hy-DTHFVCIIF-NH2 (peptide)
peptide: H-DTHFVCIIF-NH2

target: T1, human ferroportin (SLC40A1) fused in frame with GFP, stably expressed in HEK293 cells (human, UniProt Q9NP59 1-571); test: cell-based or functional assay
T1 sequence (looked up): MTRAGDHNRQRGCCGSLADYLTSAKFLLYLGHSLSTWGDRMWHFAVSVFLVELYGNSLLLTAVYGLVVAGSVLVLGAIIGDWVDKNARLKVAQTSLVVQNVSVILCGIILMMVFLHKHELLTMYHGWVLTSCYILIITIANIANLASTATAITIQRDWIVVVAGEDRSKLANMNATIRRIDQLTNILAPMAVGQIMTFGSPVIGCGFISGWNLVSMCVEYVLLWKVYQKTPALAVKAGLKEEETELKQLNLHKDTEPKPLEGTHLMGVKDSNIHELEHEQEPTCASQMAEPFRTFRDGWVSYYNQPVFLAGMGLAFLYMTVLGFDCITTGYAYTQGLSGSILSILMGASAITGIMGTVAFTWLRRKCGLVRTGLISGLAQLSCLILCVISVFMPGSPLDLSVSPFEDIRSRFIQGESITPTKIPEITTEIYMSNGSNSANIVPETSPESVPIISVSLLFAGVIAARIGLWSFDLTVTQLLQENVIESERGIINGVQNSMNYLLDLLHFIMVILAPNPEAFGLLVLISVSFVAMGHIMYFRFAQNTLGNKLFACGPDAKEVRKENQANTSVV

Binder	Potency EC50	Potency EC50 (nM)
B1	93 nM	
B2	260 nM	
B3		> 10000 nM
B4		> 10000 nM
B5		> 10000 nM
B6		> 10000 nM
B7		> 10000 nM
B8		> 10000 nM
B9		> 10000 nM
B10		> 1000 nM
B11		> 1000 nM
B12		> 1000 nM
B13	264 nM	
B14		> 1000 nM
B15		> 1000 nM
B16	9 nM	
B17	2 nM	
B18	1 nM	
B19	> 500 nM	
B20	> 500 nM	

target: T2, human ferroportin (SLC40A1) fused in frame with GFP, stably expressed on HEK293 cells (human, UniProt Q9NP59 1-571); test: cell-based or functional assay
T2 sequence (looked up): T1 sequence (looked up)

Binder	Ferroportin internalization assay EC50	percent at the stated concentration, ferroportin internalization assay
B21	> 1000 nM	
B22	> 1000 nM	
B23	> 1000 nM	
B24		59 % at 1 uM
B25		64 % at 10 uM
B26		45 % at 10 uM
B27		50 % at 10 uM
